From patent US11311622B2, “Development of masked therapeutic antibodies to limit off-target effects” (CITY OF HOPE, priority 2010, dated 2022)

Molecular target: T1, MMP-9 (Homo sapiens, UniProt P14780)
T1 construct: purchased Calbiochem
Experiment: MMP-9 digestion of masked and cross-masked scFvs (SDS-PAGE)
Type: biochemical
Conditions: into the mask and scFv proteins

T1 sequence (P14780 107-707 limits assumed, species assumed): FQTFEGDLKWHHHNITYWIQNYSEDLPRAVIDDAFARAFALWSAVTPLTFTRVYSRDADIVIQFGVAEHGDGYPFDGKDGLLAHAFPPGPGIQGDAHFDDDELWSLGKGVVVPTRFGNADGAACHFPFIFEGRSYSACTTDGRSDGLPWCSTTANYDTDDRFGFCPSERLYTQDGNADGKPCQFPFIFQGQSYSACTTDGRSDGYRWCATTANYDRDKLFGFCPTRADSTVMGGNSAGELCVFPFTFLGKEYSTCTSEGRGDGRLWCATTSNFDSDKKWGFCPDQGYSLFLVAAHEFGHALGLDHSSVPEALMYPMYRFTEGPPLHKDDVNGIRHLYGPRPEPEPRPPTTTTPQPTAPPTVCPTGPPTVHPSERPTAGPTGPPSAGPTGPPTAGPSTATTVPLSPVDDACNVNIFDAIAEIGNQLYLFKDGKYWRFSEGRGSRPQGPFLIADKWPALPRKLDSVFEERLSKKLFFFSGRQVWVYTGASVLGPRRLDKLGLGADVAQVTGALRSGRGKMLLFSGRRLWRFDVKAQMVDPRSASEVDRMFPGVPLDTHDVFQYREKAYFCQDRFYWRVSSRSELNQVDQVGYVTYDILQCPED

- cleavage by recombinant active MMP-9: completely cleaved
B1: Masked 425: sEGFRdIII (S460P/G461N) mask, MMP-9 cleavable linker, scFv 425, FLAG and H6 tags; SEQ ID NO:6 (protein)
chain: MRPSGTAGAALLALLAALCPASRARKVCNGIGIGEFKDSLSINATNIKHFKNCTSISGDLHILPVAFRGDSFTHTPPLDPQELDILKTVKEITGFLLIAAWPENRTDLHAFENLEIIRGRTKMEGQFSLAVVSLNITSLGLRSLKEISDGDVIISGNKNLCYANTINWKKLFGTSGQKTKIISNRGENSCKATGQVCHALCSPEGCWGPEPKDCVSCRNVSRGRECCSRGGGSGGGSGGGSVPLSLYSGSTSGSGKSSEGSGSGAQGELVMTQSPAIMSASPGEKVTMTCSASSSVTYMYWYQQKPGSSPRLLIYDTSNLASGVPVRFSGSGSGTSYSLTISRMEAEDAATYYCQQWSSHIFTFGSGTKLEIKGGGGSGGGGSGGGGSQVQLVESGAELVKPGASVKLSCKASGYTFTSHWMHWVKQRAGQGLEWIGEFNPSNGRTNYNEKFKSKATLTVDKSSSTAYMQLSSLTSEDSAVYYCASRDYDYDGRYFDYWGQGTTLTVSDYKDDDDKTGHHHHHH
